Measurements from the supplement of paper PMC10598134.
± gives the standard deviation.

Assay: collision cross section of modified peptide (TIMS, N2, iRT-aligned); higher = larger / more extended gas-phase ion
Method in brief: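 Synthetic peptide pools (~100 fmol/µL in 2% acetonitrile/0.1% formic acid, iRT standard spiked 1:40) were separated on a 120-min nanoflow C18 gradient at 60 °C. They were analysed on a timsTOF Pro/HT (dda-PASEF, nitrogen, ~2.4 mbar) and identified with MaxQuant. 1/K0 was calibrated with three reference ions and aligned run-wise to the median iRT peptide deviation. Collision cross section came from the Mason-Schamp equation, averaging 1–3 technical replicates of the most abundant feature per charge state.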

[1] = charge state: 2, modification: Succinyl
[2] = charge state: 3, modification: Succinyl
[3] = charge state: 3, modification: Trimethyl (K)
[4] = charge state: 2, modification: hydroxyisobutyryl
[5] = charge state: 3, modification: hydroxyisobutyryl
[6] = charge state: 3, modification: Citrullination (R)
[7] = charge state: 3, modification: Methyl (R)
[8] = charge state: 2, modification: Nitro (Y)

VSPASSVDSNIPSSQGYKK [_VSPASSVDSNIPSSQGYK(Succinyl)K_]
collision cross section [1]: 467.79 ± 1.1 Å²
collision cross section [2]: 548.84 ± 1.1 Å²

VSPASSVDSNIPSSQGYKK [_VSPASSVDSNIPSSQGYK(Trimethyl (K))K_]
collision cross section [3]: 548.09 ± 0.9 Å²

VSPASSVDSNIPSSQGYKK [_VSPASSVDSNIPSSQGYK(hydroxyisobutyryl)K_]
collision cross section [4]: 468.85 ± 0.27 Å²
collision cross section [5]: 562.43 ± 0.42 Å²

VTGGIFSVTK [_VTGGIFS(HexNAc (ST))VTK_]
collision cross section (charge state: 2, modification: HexNAc (ST)): 361.54 ± 1.2 Å²

VTLEVGKVIQQGR [_VTLEVGK(Acetyl (K))VIQQGR_]
collision cross section (charge state: 2, modification: Acetyl (K)): 405.94 ± 0.47 Å²
collision cross section (charge state: 3, modification: Acetyl (K)): 479.97 ± 2.5 Å²

VTLEVGKVIQQGR [_VTLEVGK(Biotin)VIQQGR_]
collision cross section (charge state: 2, modification: Biotin): 422.26 Å²
collision cross section (charge state: 3, modification: Biotin): 501.27 Å²

VTLEVGKVIQQGR [_VTLEVGK(Butyryl)VIQQGR_]
collision cross section (charge state: 2, modification: Butyryl): 412.79 ± 0.23 Å²
collision cross section (charge state: 3, modification: Butyryl): 483.04 ± 1.9 Å²

VTLEVGKVIQQGR [_VTLEVGK(Crotonyl)VIQQGR_]
collision cross section (charge state: 2, modification: Crotonyl): 412.55 ± 0.81 Å²
collision cross section (charge state: 3, modification: Crotonyl): 473.48 ± 1.6 Å²

VTLEVGKVIQQGR [_VTLEVGK(Dimethyl (K))VIQQGR_]
collision cross section (charge state: 2, modification: Dimethyl (K)): 422.85 ± 1.4 Å²
collision cross section (charge state: 3, modification: Dimethyl (K)): 464.75 ± 1.6 Å²

VTLEVGKVIQQGR [_VTLEVGK(Formyl)VIQQGR_]
collision cross section (charge state: 2, modification: Formyl): 402.06 ± 2.7 Å²
collision cross section (charge state: 3, modification: Formyl): 475.94 ± 2.1 Å²

VTLEVGKVIQQGR [_VTLEVGK(Gluratylation)VIQQGR_]
collision cross section (charge state: 2, modification: Glutarylation): 418.56 ± 0.59 Å²
collision cross section (charge state: 3, modification: Glutarylation): 485.84 ± 1 Å²

VTLEVGKVIQQGR [_VTLEVGK(GlyGly (K))VIQQGR_]
collision cross section (charge state: 2, modification: GlyGly (K)): 431.32 ± 0.96 Å²
collision cross section (charge state: 3, modification: GlyGly (K)): 486.06 ± 1.6 Å²

VTLEVGKVIQQGR [_VTLEVGK(Malonyl)VIQQGR_]
collision cross section (charge state: 2, modification: Malonyl): 413.16 ± 1.2 Å²
collision cross section (charge state: 3, modification: Malonyl): 480.87 ± 1.8 Å²

VTLEVGKVIQQGR [_VTLEVGK(Methyl (K))VIQQGR_]
collision cross section (charge state: 2, modification: Methyl (K)): 428.74 ± 1.9 Å²
collision cross section (charge state: 3, modification: Methyl (K)): 464.87 ± 3.7 Å²

VTLEVGKVIQQGR [_VTLEVGK(Propionyl)VIQQGR_]
collision cross section (charge state: 2, modification: Propionyl): 410.06 ± 0.37 Å²

VTLEVGKVIQQGR [_VTLEVGK(Succinyl)VIQQGR_]
collision cross section [1]: 412.33 ± 0.54 Å²
collision cross section [2]: 481.23 ± 2 Å²

VTLEVGKVIQQGR [_VTLEVGK(Trimethyl (K))VIQQGR_]
collision cross section (charge state: 2, modification: Trimethyl (K)): 428.78 ± 1 Å²
collision cross section [3]: 471.08 ± 1.8 Å²

VTLEVGKVIQQGR [_VTLEVGK(hydroxyisobutyryl)VIQQGR_]
collision cross section [4]: 414.48 ± 0.55 Å²
collision cross section [5]: 486.66 ± 1.9 Å²

VTPHPSPRGSPLPTPK [_VTPHPSPR(Citrullination (R))GSPLPTPK_]
collision cross section (charge state: 2, modification: Citrullination (R)): 409.96 ± 0.55 Å²
collision cross section [6]: 504.78 ± 11 Å²

VTPHPSPRGSPLPTPK [_VTPHPSPR(Methyl (R))GSPLPTPK_]
collision cross section [7]: 512.12 ± 9.6 Å²

VTRYPILGIPQAHR [_VTR(Citrullination (R))YPILGIPQAHR_]
collision cross section [6]: 520.51 ± 0.78 Å²

VTRYPILGIPQAHR [_VTR(Methyl (R))YPILGIPQAHR_]
collision cross section [7]: 524.3 ± 0.78 Å²

VVDLLAPYAK [_VVDLLAPY(Nitro (Y))AK_]
collision cross section [8]: 371.07 ± 0.55 Å²

VVDLLAPYAK [_VVDLLAPY(Phospho (Y))AK_]
collision cross section (charge state: 2, modification: Phospho (Y)): 379.49 ± 0.074 Å²

VVPGYGHAVLR [_VVPGY(Nitro (Y))GHAVLR_]
collision cross section [8]: 383.51 ± 0.17 Å²
collision cross section (charge state: 3, modification: Nitro (Y)): 449.51 ± 1.1 Å²
